Test results from patent publication US20070111265A1, “Ligands for mineralocorticoid receptor (MR) and methods for screening for or designing MR ligands” (Van Andel Research Institute, priority 2005, published 2007).

T1: human MR LBD (residues 727-984) containing a C808S mutation, 6xHis-GST fusion protein (human), P08235
T1 chain: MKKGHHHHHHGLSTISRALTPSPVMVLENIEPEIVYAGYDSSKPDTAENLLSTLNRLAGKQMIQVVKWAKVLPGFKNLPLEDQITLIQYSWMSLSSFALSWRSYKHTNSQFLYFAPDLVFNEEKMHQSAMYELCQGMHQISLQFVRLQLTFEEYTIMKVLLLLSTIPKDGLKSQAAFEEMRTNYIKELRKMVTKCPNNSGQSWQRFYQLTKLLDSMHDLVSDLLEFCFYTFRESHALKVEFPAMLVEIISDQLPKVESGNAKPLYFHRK


Molecular target: T1, human MR LBD (residues 727-984) …
Test: AlphaScreen peptide competition; corticosterone
Conditions: modification not given

| Binder | IC50 |
| --- | --- |
| KEKHKILHRLLQDSS [SRC2-2] | 2.2 µM |
| SKDHQLLRYLLDKDE [SRC1-3] | 1.6 µM |
| QEKHRILHKLLQNGN [SRC3-2] | 4.6 µM |

Further binders by falling IC50, results first:

| IC50 | Binder |
| --- | --- |
| 1.4 µM | KENNALLRYLLDRDD [SRC3-3] |
| 1.4 µM | TERHKILHRLLQESS [SRC1-2] |
